Consider 2 molecules from patent US20090311278A1, “Novel teleost derived antimicrobial polypeptides” (THE UNIVERSITY OF GEORGIA RESEARCH FOUNDATION, published 2009).

The target in the data set is T1, NCAMP-1 (histone H1X-like ODN binding protein), recombinant (Ictalurus punctatus).
T1 chain: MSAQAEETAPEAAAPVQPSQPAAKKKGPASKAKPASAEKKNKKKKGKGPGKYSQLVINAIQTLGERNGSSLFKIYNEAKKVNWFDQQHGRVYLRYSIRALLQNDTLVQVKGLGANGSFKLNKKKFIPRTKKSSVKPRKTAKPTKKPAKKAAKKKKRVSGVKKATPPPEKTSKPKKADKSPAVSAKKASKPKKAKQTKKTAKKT
Kind of data set: Southwestern blot. The conditions noted are these: tags: C-terminal 6xHis (pET-21b, E. coli); label: biotin (3').

Procedure: Biotinylated ODNs were used to identify potential. DNA binding proteins in NCC membrane lysate preparations and to evaluate the ODN binding of recombinant NCAMP-1. Membrane lysates were prepared as indicated above. Purified recombinant NCAMP-1 was mixed with SDS-PAGE sample buffer (reducing) prior to electrophoresis. […] Membranes were blocked in Superblock (Pierce, Rockford Ill.) blocking solution with 0.05% Tween-20. ODN's were diluted in Superblock and added to membranes (1 h, room temperature). Membranes were washed (3×) in TBS with 0.5% Tween-20 (TBST). Neutraviden-HRP (Pierce) diluted in Superblock (minimum dilution 1:50000) was added and incubated for 30 min at room temperature. Blots were washed (3×) in TBST and were developed with enhanced chemiluminiscence (SuperSignal® West Pico Pierce, Rockford, Ill.).

B1: GpC ODN (ssDNA)
DNA: TGCTGCTTGTGCTTGTGCTT
With B1, the binding result is recorded as “binds”.

B2: CpG ODN (ssDNA)
DNA: TCGTCGTTGTCGTTGTCGTT
As to B2, the binding result is “binds”.
